Assay [1] has as its target T1, recombinant CD3 proteins (UniProt P07766 23-126).
T1 construct: elsewhere it uses human CD3 E/D and E/G heterodimers
Briefly: Octet BLI, recombinant CD3; Full R^2 0.9968. On the technique in general: Biolayer interferometry detects binding as a change in optical thickness at a sensor tip.

The target in assay [2] is T1, recombinant CD3 proteins. The assay can be described thus: Octet BLI, recombinant CD3; Full R^2 0.9872.
Assay [3] concerns the target T1, recombinant CD3 proteins. Briefly: Octet BLI, recombinant CD3; Full R^2 0.9966.
Assay [4] concerns the target T1, recombinant CD3 proteins. Briefly: Octet BLI, recombinant CD3; Full R^2 0.9986.
The target in assay [5] is T1, recombinant CD3 proteins. The assay can be described thus: Octet BLI, recombinant CD3; Full R^2 0.966.
Assay [6] has as its target T1, recombinant CD3 proteins. Briefly: Octet BLI, recombinant CD3; Full R^2 0.998.
Assay [7] has as its target T1, recombinant CD3 proteins. The assay can be described thus: Octet BLI, recombinant CD3; Full R^2 0.9823.

T1 sequence (P07766 23-126): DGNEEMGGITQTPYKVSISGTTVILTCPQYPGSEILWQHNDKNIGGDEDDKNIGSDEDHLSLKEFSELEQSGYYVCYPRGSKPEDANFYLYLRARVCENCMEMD

B1: CD3 × CD33-BspAb90 (bispecific antibody)
chain 1: not shown
chain 2: EVQLVQSGAEVKKPGSSVKVSCKASGYTITDSNIHWVRQAPGQSLEWIGYIYPYNGGTDYNQKFKNRATLTVDNPTNTAYMELSSLRSEDTAFYYCVNGNPWLAYWGQGTLVTVSSASTKGPSVFPLAPSSKSTSGGTAALGCLVKDYFPEPVTVSWNSGALTSGVHTFPAVLQSSGLYSLSSVVTVPSSSLGTQTYICNVNHKPSNTKVDKRVEPKSCDKTHTCPPCPAPEFEGGPSVFLFPPKPKDTLMISRTPEVTCVVVDVSHEDPEVKFNWYVDGVEVHNAKTKPREEQYNSTYRVVSVLTVLHQDWLNGKEYKCKVSNKALPASIEKTISKAKGQPREPQVCTLPPSREEMTKNQVSLSCAVKGFYPSDIAVEWESNGQPENNYKTTPPVLDSDGSFFLVSKLTVDKSRWQQGNVFSCSVMHEALHNRFTQKSLSLSPGK
chain 3: DIQLTQSPSTLSASVGDRVTITCRASESLDNYGIRFLTWFQQKPGKAPKLLMYAASNQGSGVPSRFSGSGSGTEFTLTISSLQPDDFATYYCQQTKEVPWSFGQGTKVEVKRTVAAPSVFIFPPSDEQLKSGTASVVCLLNNFYPREAKVQWKVDNALQSGNSQESVTEQDSKDSTYSLSSTLTLSKADYEKHKVYACEVTHQGLSSPVTKSFNRGEC
In general, Kd refers to the concentration at which binding is half-saturated. What is called koff is the rate constant with which the complex falls apart. Broadly, the kon is the second-order rate constant of association. Turning to B1, in assay [1], the Kd is 334 nM, the koff was found to be 0.00459 s⁻¹ and the kon was 13800 M⁻¹ s⁻¹.

B2: CD3 × CD33-BspAb93 (bispecific antibody)
chain 1: NFMLTQPHSVSESPGKTVTISCTRSSGSIASKYVQWYQQRPGSSPTTVIYEDNQRPSGVPDRFSGSIDSSSNSASLTISGLKTEDEADYYCQSYYSNNRVFGCGTKLTVLGGGGSGGGGSGGGGSGGGGSEVQLVESGGGLVQPGGSLRLSCAASGFTFSRYSMNWVRQAPGKCLEWVSYISRSSTTIYYADSVKGRFTISRDNAKNSLYLQMNSLRDEDAAVYYCARERWELLYFDYWGQGTLVTVSSDKTHTCPPCPAPEFEGGPSVFLFPPKPKDTLMISRTPEVTCVVVDVSHEDPEVKFNWYVDGVEVHNAKTKPREEQYNSTYRVVSVLTVLHQDWLNGKEYKCKVSNKALPASIEKTISKAKGQPREPQVYTLPPCREEMTKNQVSLWCLVKGFYPSDIAVEWESNGQPENNYKTTPPVLDSDGSFFLYSKLTVDKSRWQQGNVFSCSVMHEALHNHYTQKSLSLSPGK
chain 2: B1 chain 2
chain 3: B1 chain 3
Take B2: in assay [2], the Kd was 14.8 nM, the koff came to 0.00516 s⁻¹ and the kon was determined as 349000 M⁻¹ s⁻¹.

B3: CD3 × CD33-BspAb94 (bispecific antibody)
chain 1: NFMLTQPHSVSESPGKTVTISCTRSSGSIASNYVQWYQQRPGSSPTTVIYEDNQRPSGVPDRFSGSIDSSSNSASLTISGLKTEDEADYYCQSYDSSNRVFGCGTKLTVLGGGGSGGGGSGGGGSGGGGSEVQLVESGGGLVKPGGSLRLSCAASGFTFSSYTMNWVRQAPGKCLEWVSSITTSSSYIYYADSVKGRFTISRDNAKNSLYLQMNSLRAEDTAVYYCARVTFDAFDIWGQGTMVTVSSDKTHTCPPCPAPEFEGGPSVFLFPPKPKDTLMISRTPEVTCVVVDVSHEDPEVKFNWYVDGVEVHNAKTKPREEQYNSTYRVVSVLTVLHQDWLNGKEYKCKVSNKALPASIEKTISKAKGQPREPQVYTLPPCREEMTKNQVSLWCLVKGFYPSDIAVEWESNGQPENNYKTTPPVLDSDGSFFLYSKLTVDKSRWQQGNVFSCSVMHEALHNHYTQKSLSLSPGK
chain 2: B1 chain 2
chain 3: B1 chain 3
Turning to B3, in assay [3], the Kd turned out to be 645 nM, the koff amounted to 0.0738 s⁻¹ and the kon was found to be 115000 M⁻¹ s⁻¹.

B4: CD3 × CD33-BspAb92 (bispecific antibody)
chain 1: not shown
chain 2: B1 chain 2
chain 3: B1 chain 3
As for B4, in assay [4], the Kd came out at 43.8 nM, the koff came out at 0.00051 s⁻¹ and the kon is 11600 M⁻¹ s⁻¹.

B5: CD3 × CD33-BspAb95 (bispecific antibody)
chain 1: NFMLTQPHSVSESPGKTVTISCTRSSGSIASNYVQWYQQRPGSSPTTVIYEDNQRSSGVPDRFSGSIDSSSNSASLTISGLKTEDEADYYCQSYDRSNRVFGCGTKLTVLGGGGSGGGGSGGGGSGGGGSEVQLVESGGGLVKPGGSLRLSCSASGFTFSTYTMNWVRQAPGKCLEWVSSISKSSSYIYYTDSVKGRFTISRDNAKNSLYLQMNSLRAEDTAVYYCARERRTLAFDIWGQGTMVTVSSDKTHTCPPCPAPEFEGGPSVFLFPPKPKDTLMISRTPEVTCVVVDVSHEDPEVKFNWYVDGVEVHNAKTKPREEQYNSTYRVVSVLTVLHQDWLNGKEYKCKVSNKALPASIEKTISKAKGQPREPQVYTLPPCREEMTKNQVSLWCLVKGFYPSDIAVEWESNGQPENNYKTTPPVLDSDGSFFLYSKLTVDKSRWQQGNVFSCSVMHEALHNHYTQKSLSLSPGK
chain 2: B1 chain 2
chain 3: B1 chain 3
Regarding B5, in assay [5], the Kd turned out to be 8.44 nM, the koff was determined as 0.00457 s⁻¹ and the kon was 542000 M⁻¹ s⁻¹.

B6: CD3 × CD33-BspAb91 (bispecific antibody)
chain 1: DIQMTQSPSTLSASVGDRVTITCRASQSISSWLAWFQQKTGKAPKLLIYKASSLESGVPSRFSGSGSGTEFTLTISSLQPDDFATYYCQQYISYSWTFGCGTKVEIKGGGGSGGGGSGGGGSGGGGSEVQLVESGGGLVQRGGSLRLSCAASGFTFSNYWMSWVRQAPGKCLEWVANIKEDGSEKYYVDSVKGRFTISRDNAKHSLYLQMNSLRAEDTAVYYCARERRTGYFDYWGQGTLVTVSSDKTHTCPPCPAPEFEGGPSVFLFPPKPKDTLMISRTPEVTCVVVDVSHEDPEVKFNWYVDGVEVHNAKTKPREEQYNSTYRVVSVLTVLHQDWLNGKEYKCKVSNKALPASIEKTISKAKGQPREPQVYTLPPCREEMTKNQVSLWCLVKGFYPSDIAVEWESNGQPENNYKTTPPVLDSDGSFFLYSKLTVDKSRWQQGNVFSCSVMHEALHNHYTQKSLSLSPGK
chain 2: B1 chain 2
chain 3: B1 chain 3
Consider B6, for which, in assay [6], the Kd came to 63.8 nM, the koff came to 0.00203 s⁻¹ and the kon was determined as 31900 M⁻¹ s⁻¹.

B7: CD3 × CD33-BspAb96 (bispecific antibody)
chain 1: SYELTQPPSVSVSPGQTARITCSGDALPKKYAYWYQQKSGQAPVLVIYEDSKRPSGIPERFSGSSSGTMATLTISGAQVEDEADYYCYSTDSSGNHSWVFGCGTKLTVLGGGGSGGGGSGGGGSGGGGSEVQLVESGGGLVKPGGSLRLSCAASGFTFSSYSMNWVRQAPGKCLEWVSSVNSRGSYIYYADSVKGRFTISRDNAKDSLYLQMNSLRADDTAVYYCARDRRELLLDYWGQGTLVTVSSDKTHTCPPCPAPEFEGGPSVFLFPPKPKDTLMISRTPEVTCVVVDVSHEDPEVKFNWYVDGVEVHNAKTKPREEQYNSTYRVVSVLTVLHQDWLNGKEYKCKVSNKALPASIEKTISKAKGQPREPQVYTLPPCREEMTKNQVSLWCLVKGFYPSDIAVEWESNGQPENNYKTTPPVLDSDGSFFLYSKLTVDKSRWQQGNVFSCSVMHEALHNHYTQKSLSLSPGK
chain 2: B1 chain 2
chain 3: B1 chain 3
For the molecule B7, in assay [7], the Kd was 573 nM, the koff was found to be 0.21 s⁻¹ and the kon is 366000 M⁻¹ s⁻¹.
